Source: a protein production outcome set (Wang et al. 2014)

Assay: label from the status in PepcDB records
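Also: failed if final PepcDB status was selected cloned or expressed and not failed if soluble or beyond.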

SGDERFTLRIKDLRTGELLPDIIEDIFYGVAFSPDGTRLFYTVVDDSWRPYQVKSHILGTPVAEDEVLYQEDDVAMWLGFDLSSDRRHLVLSIGCSEFSETRLLRFEDYDAGLHTVISREHHILYEAEPFLLDGKETLLLTHNKDAINSMVSLVDPAELSKPLAEQHWRTVVEHSDDVRVNGAGVTSTHLVLSVRKDTIERVQVLPLAGLGTATQGAPVEPAFHEELYTAGVSGSDYESPVIRMGYTSYFTPSRVYDFVLPTAEQPGGELLLRKESPVLGGYSASDYVATREWATADDGTQVPLSVLRHASVQQDGTAAGLVYGYGSYELSMDPGFGVARLSLLDRGIVMVIAHIRGGGELGRKWYEDGKKFTKKNTFTDFIAATDWLAGSGWVDPSRIAAMGGSAGGLLMGAVANMAPEKYAAVVAQVPFVDALTTILDPELPLSALEWEEWGNPITDPEAYAYMKSYTPYENVGAVPYPKIAAVTSFNDTRVLYVEPAKWVQALRSASTGSEPIVMKIEMDGGHGGASGRYVQWRERAWDYAFIADSVG
protein production: failed

MIPPELDMSLLLEFIGANEGTGHFKPLEKKFVRVSGEATIGHVEKFLRRKMGLDPACQVDIICGDHLLEQYQTLREIRRAIGDAAMQDGLLVLHYGLVVSP
protein production: not failed

MWTDSREALSDLQLGECERVLDVGCGTGELTRVLREETDGTVVGLDADTDLLAAAGDPTVCGDATQLPFDDDSFDLVVCQALLINLPDPEVAVREFARVATDRVAAIEPNNAAVTVESTVDAEPMLARRARRLFLDGVRTDVTLGSDAADVFSDAELTVVSTTQYDQEQQIEPPYDDAAMQAARRKATGTGLAHDRETILNGEATPAEYDALRERWRSMGRDVVEQMQDEAYERHETVPFFVTVGEIP
protein production: failed

MANPNEAYRHYMKKLSYETDIADLSIDIKKGYEGIIVVDVRDAEAYKECHIPTAISIPGNKINEDTTKRLSKEKVIITYCWGPACNGATKAAAKFAQLGFRVKELIGGIEYWRKENGEVEGTLGAKADLFWNMKKESLEHHHHHH
protein production: not failed

MYSELKEGVNLYNKKDYQEALVFFLSVSTEDVLIKIEINYYIGLIYSRLSEYEQALEYLEQVVTASKDIAKVYQCRLILAFIYANTGRTRLAEFELSKLIEAGYESVQVFSSLAYVYYEHHEIEKAIDYYEKALKTAPENSTALNGLAYILAETDRDLTRSLLLCKKAVEKQPENPAYLDSMALIYHKMNLPSEAKSYITRAKEKLPDNKIILKHFEMISSDAREA
protein production: failed

HEHPTSAGGDGGAGTGAVGTHDGSAAAAAAAAALPSISGARGHAGPEGGHDNDMGGMDASGGGGGGGYGRLPGLAAQSSMASVDGDEASLPPIANLSLGKANMTGSTVGGAAHASTRRSTLNTYYEPGAGGGGGTGGAGGGGGGAGPGPAGYGKVAKAAAVGGAGSVAGGGGVVGGAGVGGGGAVGSGTVGRRQSVGVVVGKYGSVNKQASQGHGGGGPGVAGAAGMAVTGGHAGGGVGGGGGGAVGVGGVGVNKYKANVGKTNSKYISPYSLRQLAG
protein production: failed

MAELKSLAKDTAIYGASSIIGKFLNYFLVPIYTFSLPAASGGYGVITKMYAIVALLLVVLTFGMETGFFRFANKGDDDPKKVYSVSLLMVGGVSLLFLLLCLVFLNPIAGLMGYSEHPWYLGMMLIVLAMDAIQAIPFAYLRYKKRPIKFAGLKLLFIFVSILLNILYFVVMKGDDVGVAFLINLICSFVVMLGLIPEFREFRYCPDRLLMKRMLYYSFPILILGVAGIVNQVGDKIIFPFVYPDKVEADVQLGIYSAATKIAMIMAMITQAFRFAYEPFVFGKSKDKDNKRIYAQAMKFFIIFTLLAFLAVMFYLDILRYIIAEDYWEGLRVVPIVMIAEMFMGIYFNLSFWYKLTDDTRWGAYFSIIACLTVVLMNIFLIPVYGYVACAWAGFTGYAIAMLLSYFVGQKKYPIAYDLRGIGCYVGLAIILYLIGEWIPIHNTVLLLAFRTVLLLLFIAYIIKRDLPLSQIPVINRIIKKK
protein production: not failed

MLAAAVLPKLLRHMPLSMPMVFLGSGILAFTLLPELPDPDPVKYGDFTTHLTEVCVIISLMGAGLALDRPFRWRGWSTTWRLLGIVMPLCILVMTLLGLWVLGLGLAGAILVAGAIAPTDPVLASEVQVGKPADAEDDPDEDEVRFALTSEAGLNDGLAFPFVYLAILISLVGASPDAWLGEWVALDVLWRTVAGVLVGFGTGKLLSMFFFAAKGKTFRLSEHSEGFVALAATFLAYGAAEMVEGYGFVAVFLCALTIRSAEHNHSYHQVLHSYVEQLERLMTVVILVLLGGAIARGLLEGIGWTEVLVALAFLLLVRPLAGWLGLMGGKTGPRERLAISYFGIRGIGSLFYVAYALTHGNFDAEARELWALIGLVVALSIVVHGATTAPLMNRLDRLRVAEARKQHGDEGRAPTTAV
protein production: failed

MLSAVRRANLYLNLFGFSKVPLIWLCHPKIIAIDSKHVEVRIPLRRRTKNHLNSMYFGALAVGADVAGGFLAMSKAQEKGEAISLAFKGVKAEFLKRPEADVHFVCNDGHVIDEMLDHTIATGERVNRDVKIIALCPSLHGQEPMAEFALTLSIKKAAQHTKLEHHHHHH
protein production: not failed

MPLPPSNGMGTAALVLGIISTVVFCLWPLAIVMGVLSVVFGVIGRRRARRGEATNAGQALAGIICGAVGIVLGVAFMVIIFAAAESSSDPWSTTDDSYSTSLVVHADR
protein production: failed

MQRCLRIQVARRHKLRNGKILDLGQQPTAPLLSLYLSTAQSRVISNEEPASISWSCAEAGSALGLSSASGSAEEAEPWPGVRRGTEAGQYEFARAGEAAAAVRAAAAVAVARAGMRRYLRVVGLCLACGFCSLLYAFSQLAVSLEEGAAVGRRPQAAVASWLADGGRGTGRGAGSAGPGRTGRCKEVSLSYWNPYWMLPSDVCGVNCFWEAAFRYGLKTRPTEKMHLAVVACGDRLEETVTMLKSALIFSIKPLHVHIFAEDQLHDSFKDRLDSWSFLQRFNYSLYPITFPSDSAMEWKKLFKPCASQRLFLPLILKGVDSLLYVDTDVLFLRPVDDIWSLLERFNSTQIAAMAPEHEEPRVGWYNRFARHPYYGRTGVNSGVMLMNMTRMRRKYFKNDMTTARLQWGDILMPLLKKYKLNITWGDQDLLNIMFYHNPESLFVFPCQWNYRPDHCIYGSNCREAEEEGVFILHGNRGVYHDDKQPAFRAMYEALRNCSLEDDSVRSLLKPLELELQKTVHTYCGKTYKIFIKQLAKSIRNRYDTPPKER
protein production: failed

ANKKIDHREEAIELLKQDAKRILQLIKVQMDNLTLPQCPAYEEVLDTQMYGLSREINFATRLGLIEPEEGKKLISTLEKELSALHELSMSK
protein production: failed

MNVDILKQRAKAFDYVFDAIVVTDLQGFIIDWNKGSETLYGYSKEQAIGQPVNMLHVPGDTEHITSEVISAVENQGKWTGEIRMLHKDGHIGWIESMCVPIYGENYQMVGALGINRDITKRKKELEHHHHHH
protein production: not failed

HCSADLVLVEPTPLAVLDRIALVTDNGPFDPRKVELANGLAAAAGASLVLGHAVPADATEDQRATVRTYHEDLMGLCTVPVESNIVGTTTPAAMARAVSAADLVVVESDAAWWARLLDNREPQRIAGAFGGPAIVVRPQQAEGPSPVRRLLERVAF
protein production: failed

MHSIRNFFCGQWSSSVRLDEKTVIITGANTGIGKETARDLARRGARVVMACRDLEKAEAARRELMDNSGNQNIVVKKLDLADTKSIKAFAELINKEEKQVNILINNAGIMMCPYSKTADGFEMQFGVNHLGHFLLIYLLLDLLKKSTPSRIVNVASVAHTWSGIHLEDINSEKVYSPRRAYGQSKLANILCTRSLAKRLQGSGVNVYSLHPGVVQSELFRNLSKPAQIAFKVFSPFTKTTSQGAQTTIYCAIEPELDRESGGYYSDCGPAQCSREASDDEMAQKLWELSCQMLGIIWD
protein production: failed

MSDVISESALKSAKTEKNQKIYWDELKEGEQFSYGHYQVSEHENIDFAKRYDPMEFHVDPEKAKLSPIGALCASGIHTLGIMQRLTFDNIYTNWHIVAGRELRKCQFRLPVFVDDCLTVNMTIAKLSVDTRSDRGNAELTFDVKNAKGKTVLEVEGEIVLQRFPSI
protein production: failed

MKLYIYDHCPFCVKARMIFGLKNIPVELNVLQNDDEATPTRMIGQKMVPILQKDDSRYLPESMDIVHYVDNLDGKPLLTGKRNPAIEEWLRKVNGYVNQLLLPRFAKSAFDEFSTPAARQYFIRKKEASSGSFDNHLAHSAGLIKKIGDDLRLLDKLIVQPNAVNGELSEDDIHLFPLLRNLTLVAGIHWPTKVADYRDNMAKQTQINLLSSMAI
protein production: not failed

MAHHHHHHMRKIYIAGPAVFNPDMGASYYNKVRELLKKENVMPLIPTDNEATGALDIRQKNIQMIKDCDAVIADLSPFRGHEPDCGTAFEVGYAAALNKMVLTFTSDRRNMREKYGSEVDKDNLRVEGFGLPFNLMLYDGVEVFDSFESAFKYFLANFPSK
protein production: not failed

VSVGTHPTFENSPSGTVLTSPPDGSAVDRATDAARRVVDALLRTDRGNANLERVAEELNSIAGHLEEHAPAVAERLIDMWNGEGVTRHDPVTGPENALAPPVVLEGLSDGSVRGTVTLTIPYQGPPGHVHGGVSALLLDHVLGVANAWGGKAGMTAQLSTRYHRPTPLFEPLTLTGKLMSVDGRKITTAGDIRTADGQVCVSVEGLFVDKTVPRPR
protein production: not failed

MKRMSSLEYHFGVKVRFYPSNNQKKMIKQNYDAQRFVYNQYVGAGRLIYHVKKANRIKQLSSGLPFVMQGMSEYENQQALRMIDTQDLISKPKNIRDKYDFLRVEDIDSLAIANAIQNYHKAWRNYHKIGYGIPTFHKKRSSWSYQTNCQYIKQDAAYLDNGTVRFIDAKHVKLPKLGIVRIAGLRKLIKKRLFNRIPIRIGTASIKKTADDQFYLSLQLGSDIAFVKDYAKTQKQIGIDLNLDNFLTDSNGAMVANPRFYRRAKKKLAHAQRILSRRERRAKKEGRSLCESKNYQKQRLAVAKLHDRIRRQRQDFLQVLSTALIKNHDLVVAEELRSKNLLKNHALAQSISDAGWRSFLTMLEYKADLHGKKFVTIDPKFTTQRCHNCGNIMGQNGYKKLTLKDRKWTCPVCGSYHIRDWNASVNILEKSKGIWKNPKIKKRSK
protein production: failed

MYRLLALFVPPEAAFRTGRGFSFDAGEVTGAIGDSVTVLPLVVALGLLTPASLPHLLAGFGVFQVIWGLYYGVPLSVEPMKALAGLAIAGTLSHGGLVAAGLVAGGVLLVAGRTGSLSWIQQFVGEPVVRGVQFAVACLLVVAAVDLVAGSVGIAAAGAGLALVVALVSRNAVALVVLAVGAVWAATAGGIPAPAAPSLELFPAGGPTLSVGAIEGLLAQLAMTVGNAAVATSLLLSDLYDAEISPDRLADSMGAMNLAAVPLGAVPMCHGSGGLAGKHAFGARTGTANLVAGGFYAGLALVAGLLAAFPMALLGVLLVVVAASLSRVAFTKTDRRLFVAGVGGLAVVTNVAVAFVAATLWWQLRG
protein production: failed

MEALKRKIEEEGVVLSDQVLKVDSFLNHQIDPLLMQRIGDEFASRFAKDGITKIVTIESSGIAPAVMTGLKLGVPVVFARKHKSLTLTDNLLTASVYSFTKQTESQIAVSGTHLSDQDHVLIIDDFLANGQAAHGLVSIVKQAGASIAGIGIVIEKSFQPGRDELVKLGYRVESLARIQSLEEGKVSFVQEVHS
protein production: not failed

MKIFVDGDGSPVKETVIEVAVEKALDVVIVTSVDHYSLKDYPENVSFVYVDKGADAADFKIVQLIKKGDLLITQDYGLASLVLPKGVLVLHQLGYQYTKENIDGLLEQRYFSGQIRRKGGRTKGPKPFTDQDRTTFKQALIELVKRSLLEHHHHHH
protein production: failed
